B1: KRT18 (parent)
chain: PQVRDWSHYFKIIEDLRAQIFANT
B2: STEAP1 (parent)
chain: LWKMKPRRNLEEDDYLHKDTGETS

Variants of: B1
Assay: protein stability index of a GFP-peptide fusion (GPS, HEK-293T) (PSI 1-6); higher = more stable
Conditions: c terminus: a fixed tail appended
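Also: lentivirally expressed fusions sorted by FACS into six bins by GFP to DsRed ratio, PSI derived from sequencing read proportions per bin multiplied by bin number.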

Row | Variant | protein stability index
1 | I20T | 2.83
2 | I20M | 2.15
3 | I20C | 1.86
4 | I20N | 3.05
5 | I20H | 1.89
6 | I20R | 2.75
7 | I20Q | 2.09
8 | I20S | 2.17
9 | I20V | 2.08
10 | I20G | 2.9
11 | I20Y | 2.16
12 | I20E | 2.86
13 | I20F | 2.22
14 | I20A | 2.07
15 | I20K | 2.7
16 | I20D | 2.59
17 | I20P | 1.91
18 | I20W | 1.62
19 | I20L | 2
20 | F21R | 2.33
21 | F21L | 2.7
22 | F21T | 1.97
23 | F21Y | 3.6
24 | F21C | 1.97
25 | F21P | 2.15

Row | Variant | protein stability index
26 | F21I | 1.91
27 | F21E | 2.98
28 | F21K | 2.98
29 | F21W | 1.84
30 | F21H | 2.4
31 | F21N | 2.46
32 | F21S | 2.32
33 | F21G | 2.52
34 | F21M | 2.16
35 | F21D | 3.27
36 | F21V | 2.39
37 | F21A | 2.83
38 | F21Q | 2.46
39 | Q19W | 2.39
40 | Q19F | 1.7
41 | Q19R | 2.45
42 | Q19P | 1.97
43 | Q19C | 1.86
44 | Q19L | 1.79
45 | Q19I | 1.42
46 | Q19V | 1.59
47 | Q19Y | 1.65
48 | Q19K | 2.12
49 | Q19E | 2.62
50 | Q19N | 2.56

Row | Variant | protein stability index
51 | Q19M | 1.89
52 | Q19S | 2.67
53 | Q19A | 2.05
54 | Q19D | 2.49
55 | Q19T | 2.8
56 | Q19G | 2.34
57 | Q19H | 2.09
58 | K11C | 2.12
59 | K11M | 1.42
60 | K11Q | 2.5
61 | K11S | 2.75
62 | K11T | 1.98
63 | K11L | 3.02
64 | K11V | 2.99
65 | K11Y | 1.35
66 | K11W | 3.08
67 | K11H | 2.25
68 | K11R | 2.11
69 | K11A | 2.1
70 | K11E | 1.52
71 | K11P | 1.55
72 | K11G | 1.74
73 | K11I | 2.25
74 | K11D | 1.84
75 | K11N | 1.49

Row | Variant | protein stability index
76 | I13R | 2.69
77 | I13T | 2.54
78 | I13S | 2.15
79 | I13E | 2.32
80 | I13Q | 2.75
81 | I13D | 2.9
82 | I13N | 2.38
83 | I13H | 2.16
84 | I13L | 2.27
85 | I13C | 2.3
86 | I13F | 2.12
87 | I13W | 3.46
88 | I13P | 2.63
89 | I13Y | 1.72
90 | I13V | 2.87
91 | I13K | 1.79
92 | I13A | 2.77
93 | I13M | 1.62
94 | I13G | 2.9
95 | R17Y | 1.51
96 | R17C | 1.62
97 | R17F | 1.54
98 | R17V | 1.89
99 | R17M | 2.12
100 | R17E | 2.61

Row | Variant | protein stability index
101 | R17L | 1.96
102 | R17Q | 2.19
103 | R17A | 2.14
104 | R17I | 2.61
105 | R17N | 2.64
106 | R17W | 1.97
107 | R17D | 2.4
108 | R17K | 3.07
109 | R17P | 2.15
110 | R17H | 2.58
111 | R17G | 2.3
112 | R17S | 2.02
113 | R17T | 2.27
114 | A18W | 2.34
115 | A18N | 2.8
116 | A18F | 2.24
117 | A18T | 1.48
118 | A18D | 2.44
119 | A18E | 2.7
120 | A18K | 2.68
121 | A18I | 2.13
122 | A18Q | 2.02
123 | A18R | 2.44
124 | A18M | 1.81
125 | A18C | 1.94

Row | Variant | protein stability index
126 | A18V | 1.97
127 | A18P | 2.15
128 | A18L | 2.29
129 | A18S | 2.25
130 | A18H | 1.88
131 | A18G | 1.9
132 | A18Y | 1.77
133 | Y9G | 1.75
134 | Y9L | 2.17
135 | Y9H | 2.5
136 | Y9P | 2.36
137 | Y9N | 2.71
138 | Y9Q | 2.42
139 | Y9W | 2.5
140 | Y9M | 1.89
141 | Y9I | 2.12
142 | Y9S | 2.56
143 | Y9F | 1.94
144 | Y9R | 2.25
145 | Y9V | 2.48
146 | Y9T | 1.81
147 | Y9K | 1.76
148 | L16N | 2.62
149 | L16W | 2.05
150 | L16T | 2.09

Row | Variant | protein stability index
151 | L16S | 2.03
152 | L16V | 1.96
153 | L16P | 2.38
154 | L16E | 2.63
155 | L16I | 2.03
156 | L16H | 2.13
157 | L16G | 2.32
158 | L16K | 1.85
159 | L16F | 1.53
160 | L16D | 2.22
161 | L16M | 2.08
162 | L16A | 2.17
163 | L16R | 2.33
164 | L16Q | 2.47
165 | L16Y | 2.26
166 | L16C | 1.7
167 | N23A | 1.86
168 | N23R | 2.57
169 | N23L | 2.53
170 | N23Y | 1.56
171 | N23H | 2.35
172 | N23D | 2.43
173 | N23W | 1.95
174 | N23Q | 1.86
175 | N23C | 2.36

Row | Variant | protein stability index
176 | N23P | 1.91
177 | N23T | 1.56
178 | N23S | 2.33
179 | N23I | 1.93
180 | N23V | 2.08
181 | N23M | 2.1
182 | N23K | 2.06
183 | N23E | 2.8
184 | N23F | 1.22
185 | T24E | 3.47
186 | T24G | 2.5
187 | T24S | 2.31
188 | T24L | 2.31
189 | T24P | 2.84
190 | T24W | 2.27
191 | T24F | 2.34
192 | T24Y | 1.72
193 | T24C | 2.02
194 | T24H | 2.43
195 | T24R | 2.23
196 | T24Q | 2.47
197 | T24V | 2.04
198 | T24I | 2.6
199 | T24N | 2.74
200 | T24K | 2.53

Row | Variant | protein stability index
201 | T24A | 1.9
202 | T24D | 2.75
203 | T24M | 2.81
204 | F10Y | 1.54
205 | F10K | 1.86
206 | F10R | 2.58
207 | F10T | 3.01
208 | F10L | 2.17
209 | F10E | 2.26
210 | F10D | 1.9
211 | F10H | 2.57
212 | F10S | 2.15
213 | F10W | 2.7
214 | F10G | 2.4
215 | F10Q | 3.22
216 | F10C | 2.25
217 | F10P | 3.18
218 | F10N | 1.89
219 | F10V | 1.69
220 | F10A | 2.29
221 | F10M | 2.56
222 | F10I | 2.23
223 | I12L | 2.27
224 | I12M | 1.92
225 | I12W | 3.05

Row | Variant | protein stability index
226 | I12N | 3.55
227 | I12Y | 2.2
228 | I12E | 2.45
229 | I12A | 2.53
230 | I12Q | 2.41
231 | I12D | 3.17
232 | I12S | 2.3
233 | I12C | 2.38
234 | I12H | 2.36
235 | I12G | 2.72
236 | I12F | 1.9
237 | I12T | 2.78
238 | I12R | 2.55
239 | I12P | 2.24
240 | I12V | 2.04
241 | I12K | 1.85
242 | A22K | 2.1
243 | A22W | 1.41
244 | A22Q | 2.72
245 | A22G | 2.51
246 | A22D | 2.49
247 | A22S | 2.17
248 | A22M | 2.37
249 | A22L | 1.45
250 | A22N | 2.53

Row | Variant | protein stability index
251 | A22H | 2
252 | A22T | 2.14
253 | A22E | 2.12
254 | A22F | 1.8
255 | A22I | 2.5
256 | A22V | 2.01
257 | A22R | 1.99
258 | A22C | 1.9
259 | A22Y | 1.64
260 | A22P | 2.4
261 | E14D | 2.28
262 | E14S | 2.26
263 | E14Y | 1.9
264 | E14A | 2
265 | E14G | 2
266 | E14Q | 2.64
267 | E14F | 1.59
268 | E14N | 2.03
269 | E14R | 2.27
270 | E14C | 2.33
271 | E14L | 1.39
272 | E14T | 2
273 | E14K | 2.77
274 | E14V | 2.11
275 | E14I | 2.46

Row | Variant | protein stability index
276 | E14W | 2.79
277 | E14M | 2.32
278 | E14H | 2.69
279 | E14P | 1.67
280 | D15Q | 1.71
281 | D15R | 1.89
282 | D15E | 2.28
283 | D15V | 2.32
284 | D15W | 1.61
285 | D15S | 2.09
286 | D15T | 1.78
287 | D15K | 3.02
288 | D15H | 1.57
289 | D15N | 2.1
290 | D15F | 1.58
291 | D15L | 2.69
292 | D15Y | 3.62
293 | D15M | 2.87
294 | D15A | 2.47
295 | D15P | 1.4
296 | D15I | 1.74
297 | D15G | 2.16

Variants of: B2
Assay: as above
Conditions: c terminus: a fixed tail appended

Row | Variant | protein stability index
298 | Y15W | 4.26
299 | N9M | 4.36
300 | D14S | 4.18
301 | D14W | 3.11
302 | D14V | 4.07
303 | G21N | 4.36
304 | K3Y | 3.81
305 | K3G | 4.22
306 | K3F | 3.31
307 | K18L | 3.93
308 | W2G | 4.96
309 | H17K | 4.38
310 | H17I | 4.11
311 | H17W | 3.84
312 | L10H | 4.22
313 | L10W | 4.41
314 | L10C | 3.9
315 | L10A | 4.86
316 | S24H | 4.31

Row | Variant | protein stability index
317 | S24G | 4.46
318 | R7Q | 4.62
319 | L16M | 4.24
320 | P6S | 4.57
321 | R8L | 4.03
322 | T23R | 4.48
323 | T23K | 4.73
324 | E12M | 3.63
325 | E12Y | 3.3
326 | D13Y | 4.17
327 | D13I | 3.84
328 | E11Y | 3.09
329 | E11M | 3.96
330 | E22R | 3.69
331 | E22N | 4.22
332 | M4V | 4.41
333 | M4Q | 4.95
334 | D19G | 4.45
